{"source": "paper PMC7229837", "about": "“Molecular architecture of the DNA-binding sites of the P-loop ATPases MipZ and ParA from Caulobacter crescentus”", "binders": {"B1": {"name": "ran14-up/ran14-lo 14 bp (dsDNA)", "DNA 1": "GCCGCCGCCGCCGC", "DNA 2": "GCGGCGGCGGCGGC"}}, "key": {"ParA WT": {"target": "T1, ParA WT (Caulobacter crescentus, UniProt B8GW31 1-267)", "T1 sequence": "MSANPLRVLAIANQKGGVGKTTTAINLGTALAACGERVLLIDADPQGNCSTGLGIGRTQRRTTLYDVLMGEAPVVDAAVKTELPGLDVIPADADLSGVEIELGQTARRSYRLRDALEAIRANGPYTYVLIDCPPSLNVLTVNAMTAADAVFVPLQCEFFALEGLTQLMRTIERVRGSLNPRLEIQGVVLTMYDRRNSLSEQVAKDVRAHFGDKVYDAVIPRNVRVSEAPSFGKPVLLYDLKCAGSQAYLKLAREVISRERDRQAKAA", "assay": "HDX-MS; 1 mM ATPgS; regions R1, R2, R4 protected; EMSA: 10 mM HEPES/NaOH pH 7.2, 150 mM NaCl, 10 mM MgCl2, 0.05% Tween 20, 0.46 mM ATPgS, room temp; BLI: 50 mM HEPES/NaOH pH 7.2, 50 mM NaCl, 5 mM MgCl2, 0.1 mM", "conditions": "protein: recombinant; tags: C-terminal His6; chain copies: 2; blunt"}, "MipZ D42A": {"target": "T2, MipZ D42A (Caulobacter crescentus, UniProt Q9A6C9 1-278, D42A)", "T2 sequence": "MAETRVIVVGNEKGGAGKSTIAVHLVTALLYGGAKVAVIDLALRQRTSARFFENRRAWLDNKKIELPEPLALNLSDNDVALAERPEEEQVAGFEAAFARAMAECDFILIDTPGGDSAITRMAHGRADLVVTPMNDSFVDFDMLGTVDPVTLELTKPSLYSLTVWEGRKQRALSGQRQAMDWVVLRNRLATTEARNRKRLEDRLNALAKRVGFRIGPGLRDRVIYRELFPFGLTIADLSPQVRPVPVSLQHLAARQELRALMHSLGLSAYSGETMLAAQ", "assay": "HDX-MS; 1 mM ATPgS; regions R1, R3, R4 protected; EMSA: 10 mM HEPES/NaOH pH 7.2, 150 mM NaCl, 10 mM MgCl2, 0.05% Tween 20, 0.46 mM ATPgS, room temp; BLI: 50 mM HEPES/NaOH pH 7.2, 50 mM NaCl, 5 mM MgCl2, 0.1 mM", "conditions": "protein: recombinant; tags: C-terminal His6 (pET21a); chain copies: 2; blunt"}}}
{"binder": "B1", "values": [{"measurement": "binding result", "setting": "ParA WT", "result": "binds"}, {"measurement": "binding result", "setting": "MipZ D42A", "result": "binds"}]}
